Test results as given in publication PMC7954794, “Protein context shapes the specificity of SH3 domain-mediated interactions in vivo” (Nature Communications, 2021).

B1: BBC1: yeast SH3-containing protein; SH3-deleted or knockout strain (protein, UniProt P47068 1-1157, looked up)
Myosin tail …: MSEPEVPFKVVAQFPYKSDYEDDLNFEKDQEIIVTSVEDAEWYFGEYQDSNGDVIEGIFPKSFVAVQGSEVGKEAESSPNTGSTEQRTIQPEVEQKDLPEPISPETKKETLSGPVPVPAATVPVPAATVPVPAATAVSAQVQHDSSSGNGERKVPMDSPKLKARLSMFNQDITEQVPLPKSTHLDLENIPVKKTIVADAPKYYVPPGIPTNDTSNLERKKSLKENEKKIVPEPINRAQVESGRIETENDQLKKDLPQMSLKERIALLQEQQRLQAAREEELLRKKAKLEQEHERSAVNKNEPYTETEEAEENEKTEPKPEFTPETEHNEEPQMELLAHKEITKTSREADEGTNDIEKEQFLDEYTKENQKVEESQADEARGENVAEESEIGYGHEDREGDNDEEKEEEDSEENRRAALRERMAKLSGASRFGAPVGFNPFGMASGVGNKPSEEPKKKQHKEKEEEEPEQLQELPRAIPVMPFVDPSSNPFFRKSNLSEKNQPTETKTLDPHATTEHEQKQEHGTHAYHNLAAVDNAHPEYSDHDSDEDTDDHEFEDANDGLRKHSMVEQAFQIGNNESENVNSGEKIYPQEPPISHRTAEVSHDIENSSQNTTGNVLPVSSPQTRVARNGSINSLTKSISGENRRKSINEYHDTVSTNSSALTETAQDISMAAPAAPVLSKVSHPEDKVPPHPVPSAPSAPPVPSAPSVPSAPPVPPAPPALSAPSVPPVPPVPPVSSAPPALSAPSIPPVPPTPPAPPAPPAPLALPKHNEVEEHVKSSAPLPPVSEEYHPMPNTAPPLPRAPPVPPATFEFDSEPTATHSHTAPSPPPHQNVTASTPSMMSTQQRVPTSVLSGAEKESRTLPPHVPSLTNRPVDSFHESDTTPKVASIRRSTTHDVGEISNNVKIEFNAQERWWINKSAPPAISNLKLNFLMEIDDHFISKRLHQKWVVRDFYFLFENYSQLRFSLTFNSTSPEKTVTTLQERFPSPVETQSARILDEYAQRFNAKVVEKSHSLINSHIGAKNFVSQIVSEFKDEVIQPIGARTFGATILSYKPEEGIEQLMKSLQKIKPGDILVIRKAKFEAHKKIGKNEIINVGMDSAAPYSSVVTDYDFTKNKFRVIENHEGKIIQNSYKLSHMKSGKLKVFRIVARGYVGW
B2: WT (protein, UniProt P15891 2-592, looked up)
Actin-binding protein: ALEPIDYTTHSREIDAEYLKIVRGSDPDTTWLIISPNAKKEYEPESTGSSFHDFLQLFDETKVQYGLARVSPPGSDVEKIIIIGWCPDSAPLKTRASFAANFAAVANNLFKGYHVQVTARDEDDLDENELLMKISNAAGARYSIQTSSKQQGKASTPPVKKSFTPSKSPAPVSKKEPVKTPSPAPAAKISSRVNDNNDDDDWNEPELKERDFDQAPLKPNQSSYKPIGKIDLQKVIAEEKAKEDPRLVQKPTAAGSKIDPSSDIANLKNESKLKRDSEFNSFLGTTKPPSMTESSLKNDDDKVIKGFRNEKSPAQLWAERKAKQNSGNAETKAEAPKPEVPEDEPEGEPDVKDLKSKFEGLAASEKEEEEMENKFAPPPKKSEPTIISPKPFSKPQEPVKAEEAEQPKTDYKKIGNPLPGMHIEADNEEEPEENDDDWDDDEDEAAQPPLPSRNVASGAPVQKEEPEQEEIAPSLPSRNSIPAPKQEEAPEQAPEEEIEEEAEEAAPQLPSRSSAAPPPPPRRATPEKKPKENPWATAEYDYDAAEDNELTFVENDKIINIEFVDDDWWLGELEKDGSKGLFPSNYVSLGN

Assays:
Abp1 (1xFLAG) = assay: Western blot expression level of Abp1 SH3-swapped baits (Fig. S2A-B); type: cell-based, Saccharomyces cerevisiae; set-up: Flag (2 bands): unit not given here; settings: sheet FigS2A-B; for Ratio Swap/WT Flag: Flag signal relative to Abp1 WT (Abp1-1 to Abp1-4 = 1); for Flag (2 bands): Western blot Flag signal (2 bands), Abp1 WT, SH3-deleted or SH3-swapped
Summary of the method: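 Yeast expressing DHFR F[1,2]-FLAG-tagged baits grown in synthetic complete medium at 30 °C to OD600 ~1.0, lysed with glass beads in Tris pH 7.4/150 mM NaCl/1% Triton X-100. Baits immunoprecipitated on FLAG-M2 beads 120 min at 4 °C, resolved on 10% SDS-PAGE, probed with anti-FLAG HRP (ECL), signals quantified by imager.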

Hua2 = assay: Deep mutational scanning of Abp1 SH3, Abp1-Hua2 DHFR-PCA (DMS score); type: cell-based, Saccharomyces cerevisiae; settings: Abp1-Hua2 DHFR-PCA; WT = 0; Fig. S3C-D
Summary of the method: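 Abp1 SH3 variants from NNN codon saturation mutagenesis at all 58 positions were reintegrated genomically in yeast by CRISPR, pooled, and mated with DHFR F[3] prey strains. Diploids underwent two 72 h liquid DHFR-PCA selections at 30 °C, and mutant abundance was read by Illumina sequencing against the pre-selection reference.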

Row | Molecule | Ratio Swap/WT Flag (Abp1 (1xFLAG)) | Flag (2 bands) (Abp1 (1xFLAG)) | DMS score Hua2 (Hua2)
1 | B1 | 0.7943 | 76893 | –
2 | B2 | 0.6226 | 60270 | 0
